This note sets out measurements from IntAct's records for PubMed 18818696.

The chains are these.
B1: Protein SGT1 homolog (Homo sapiens), Q9Y2Z0-2 (parent)
chain: MAAAAAGTATSQRFFQSFSDALIDEDPQAALEELTKALEQKPDDAQYYCQRAYCHILLGNYCVAVADAKKSLELNPNNSTAMLRKGICEYHEKNYAAALETFTEGQKLDSADANFSVWIKRCQEAQNGSESEVWTHQSKIKYDWYQTESQVVITLMIKNVQKNDVNVEFSEKELSALVKLPSGEDYNLKLELLHPIIPEQSTFKVLSTKIEIKLKKPEAVRWEKLEGQGDVPTPKQFVADVKNLYPSSSPYTRNWDKLVGEIKEEEKNEKLEGDAALNRLFQQIYSDGSDEVKRAMNKSFMESGGTVLSTNWSDVGKRKVEINPPDDMEWKKY

Variants of B1 are the subject of the assay. To be noted: with skp1_human SKP1, P63208.
skp1_human SKP1, P63208, sequence (P63208 whole entry): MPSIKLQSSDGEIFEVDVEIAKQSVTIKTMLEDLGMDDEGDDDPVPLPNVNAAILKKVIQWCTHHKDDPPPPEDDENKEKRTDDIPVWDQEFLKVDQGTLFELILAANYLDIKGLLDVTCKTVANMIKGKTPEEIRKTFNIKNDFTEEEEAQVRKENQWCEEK
As to Y145R, the “effect of a mutation on the interaction” value is “increasing interaction”.
